# In patent US20090155271A1 (ZymoGenetics, published 2009):
# Where “and” joins values, the source holds several entries; their conditions need not be identical. Identical values can stand only once.
# T1: human IL-17A (human, UniProt Q16552 24-155)
# T1 sequence: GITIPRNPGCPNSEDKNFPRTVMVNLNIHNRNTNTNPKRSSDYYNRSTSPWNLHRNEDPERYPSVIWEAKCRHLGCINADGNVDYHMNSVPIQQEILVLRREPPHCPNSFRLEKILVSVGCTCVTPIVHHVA
# T2: human IL-17RC, x1 splice variant, on transfected cells (human, UniProt Q8NAC3 21-791)
# T2 construct: Full-length receptor on BHK, 293F or NIH3T3 transfectants; also called hIL-17RC; hIL-17RC (x1)
# T2 sequence: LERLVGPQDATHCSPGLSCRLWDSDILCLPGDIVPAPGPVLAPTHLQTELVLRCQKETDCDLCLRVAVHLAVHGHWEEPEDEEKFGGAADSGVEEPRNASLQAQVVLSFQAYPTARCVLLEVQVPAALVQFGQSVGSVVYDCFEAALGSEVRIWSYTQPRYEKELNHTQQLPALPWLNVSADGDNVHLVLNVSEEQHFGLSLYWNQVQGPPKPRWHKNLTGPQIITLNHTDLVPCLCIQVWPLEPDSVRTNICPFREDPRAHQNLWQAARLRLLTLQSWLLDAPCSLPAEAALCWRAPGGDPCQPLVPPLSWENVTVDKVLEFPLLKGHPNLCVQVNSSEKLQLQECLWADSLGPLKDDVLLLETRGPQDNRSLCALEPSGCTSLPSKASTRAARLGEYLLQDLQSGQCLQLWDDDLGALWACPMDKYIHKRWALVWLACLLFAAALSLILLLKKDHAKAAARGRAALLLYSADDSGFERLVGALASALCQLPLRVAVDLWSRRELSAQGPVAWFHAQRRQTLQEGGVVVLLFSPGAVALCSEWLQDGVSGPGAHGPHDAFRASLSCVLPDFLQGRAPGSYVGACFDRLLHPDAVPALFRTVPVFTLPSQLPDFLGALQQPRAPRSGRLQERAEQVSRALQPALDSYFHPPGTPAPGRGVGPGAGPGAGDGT
# T3: human IL-17RA on transfected cells (human, UniProt Q96F46 33-320)
# T3 sequence: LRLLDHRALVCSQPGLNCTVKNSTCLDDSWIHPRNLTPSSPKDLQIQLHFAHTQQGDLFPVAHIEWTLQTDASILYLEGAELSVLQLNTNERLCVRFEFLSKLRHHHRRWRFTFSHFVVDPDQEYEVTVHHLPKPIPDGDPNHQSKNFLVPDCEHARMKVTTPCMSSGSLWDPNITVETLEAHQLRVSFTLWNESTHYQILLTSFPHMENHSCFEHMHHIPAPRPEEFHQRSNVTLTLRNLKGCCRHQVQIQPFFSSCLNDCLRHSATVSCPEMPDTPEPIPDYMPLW
# B1: human IL-17F (ligand)
# chain: RKIPKVGHTFFQKPESCPPVPGGSMKLDIGIINENQRVSMSRNIESRSTSPWNYTVTWDPNRYPSEVVQAQCRNLGCINAQGKEDISMNSVPIQQETLVVRRKHQGCSVSFQLEKVLVTVGCTCVTPVIHHVQ
# notes: also called hIL-17F; huIL-17F
# What was measured:
# human IL-17A [1] = molecular target: T1, human IL-17A; test: cell-based or functional assay
# human IL-17F [2] = molecular target: B1; test: cell-based or functional assay
# human IL-17A [3] = molecular target: T1, human IL-17A; test: cell-based or functional assay; remark: listed apart in the source
# human IL-17F [4] = molecular target: B1; test: cell-based or functional assay; remark: listed apart in the source
# human IL-17A [5] = molecular target: T1, human IL-17A; test: Biacore, rounded summary of Table 10
# From the text: (§1) The protocol was optimized to capture receptor at a theoretical binding max. before injecting a concentration series of each ligand to observe association and dissociation. […] The surface was regenerated with 2×30 sec. injections of pH 1.75 glycine between cycles.
# human IL-17F [6] = molecular target: B1; test: Biacore, rounded summary of Table 10
# From the text: as §1
# human IL-17A [7] = molecular target: T1, human IL-17A; test: Biacore, receptor captured by anti-human IgG-Fc on CM5, ligand series
# From the text: as §1
# human IL-17F [8] = molecular target: B1; test: as above
# From the text: as §1
# [9] = molecular target: T2, human IL-17RC, x1 splice variant, on …; test: 100x molar cold competitor, 125I IL-17F on BHK hIL-17RC cells
# Experimental: (§2) Cold competitors were added in 100 fold molar excess. […] Wells were incubated on ice for 1-hour followed by two washes with PBS (Invitrogen 20012-027) and one wash with a high salt solution (1.5M NaCL, 50 mM HEPES pH 7.4). Wells were extracted with 500 ul of 0.8M NaOH for 30 min. at room temperature and counts per minute were measured in a gamma counter (Packard Cobra II A5005).
# [10] = molecular target: T3, human IL-17RA on transfected cells; test: cell-based or functional assay
# [11] = molecular target: T2, human IL-17RC, x1 splice variant, on …; test: cell-based or functional assay
# [12] = molecular target: T2, human IL-17RC, x1 splice variant, on …; test: 100x molar cold competitor, 125I IL-17A on BHK hIL-17RC cells
# Experimental: as §2
binder,measurement,setting,value
"Variant 1454 (exons 1-6 of human IL-17RA and 8-16 of human IL-17RCx1, fused to Fc5) (Fc fusion, also called IL17RA/RC 1454; soluble IL-17RC/IL-17RA polypeptide) SLRLLDHRALVCSQPGLNCTVKNSTCLDDSWIHPRNLTPSSPKDLQIQLHFAHTQQGDLFPVAHIEWTLQTDASILYLEGAELSVLQLNTNERLCVRFEFLSKLRHHHRRWRFTFSHFVVDPDQEYEVTVHHLPKPIPDGDPNHQSKNFLVPDCEHARMKVTTPCMSSALPWLNVSADGDNVHLVLNVSEEQHFGLSLYWNQVQGPPKPRWHKNLTGPQIITLNHTDLVPCLCIQVWPLEPDSVRTNICPFREDPRAHQNLWQAARLRLLTLQSWLLDAPCSLPAEAALCWRAPGGDPCQPLVPPLSWENVTVDKVLEFPLLKGHPNLCVQVNSSEKLQLQECLWADSLGPLKDDVLLLETRGPQDNRSLCALEPSGCTSLPSKASTRAARLGEYLLQDLQSGQCLQLWDDDLGALWACPMDKYIHKEPKSSDKTHTCPPCPAPEAEGAPSVFLFPPKPKDTLMISRTPEVTCVVVDVSHEDPEVKFNWYVDGVEVHNAKTKPREEQYNSTYRVVSVLTVLHQDWLNGKEYKCKVSNKALPSSIEKTISKAKGQPREPQVYTLPPSRDELTKNQVSLTCLVKGFYPSDIAVEWESNGQPENNYKTTPPVLDSDGSFFLYSKLTVDKSRWQQGNVFSCSVMHEALHNHYTQKSLSLSPGK","IC50, huIL-17A(10 ng/ml) induction of G-CSF in SAEC",human IL-17A [1],0.14 µg/mL
same,"IC50, huIL-17A(10 ng/ml) induction of IL-8 in SAEC",human IL-17A [1],0.03 µg/mL
same,"IC50, huIL-17F(50 ng/ml) induction of G-CSF in SAEC",human IL-17F [2],1.2 µg/mL
same,"IC50, huIL-17F(50 ng/ml) induction of IL-8 in SAEC",human IL-17F [2],0.57 µg/mL
same,"IC50, luciferase activation of hIL-17RA/NIH3T3/KZ142.8 cells by 0.5 ng/ml IL-17A",human IL-17A [3],0.007 µg/mL
same,"IC50, luciferase activation of hIL-17RA/NIH3T3/KZ142.8 cells by 20 ng/ml IL-17F",human IL-17F [4],0.48 µg/mL
same,"IC50, luciferase activation of hIL-17RCX4/NIH3T3/KZ142.8 cells by 1 ng/ml IL-17F",human IL-17F [4],0.8 µg/mL
same,Kd,human IL-17A [5],~40 pM
same,Kd,human IL-17F [6],~140 pM
same,Kd,human IL-17A [7],43.9 pM and 38.2 pM
same,koff,human IL-17A [7],6.22e-05 s⁻¹ and 9.95e-05 s⁻¹
same,kon,human IL-17A [7],1.42e+06 M⁻¹ s⁻¹ and 2.61e+06 M⁻¹ s⁻¹
same,Kd,human IL-17F [8],143 pM and 126 pM
same,koff,human IL-17F [8],0.000261 s⁻¹ and 0.000315 s⁻¹
same,kon,human IL-17F [8],1.82e+06 M⁻¹ s⁻¹ and 2.49e+06 M⁻¹ s⁻¹
B1,fold reduction of 125I IL-17F binding,[9],~5 fold
same,"EC50, ap1/nfkb luciferase in nih3t3/kz142.8/IL-17R cells",[10],0.0124 µg/mL
same,"EC50, ap1/nfkb luciferase in nih3t3/kz142.8/hcytor14X1 cells",[11],0.00061 µg/mL
same,fold reduction of 125I IL-17A binding,[12],~7 fold
mouse IL-17A (ligand) AAIIPQSSACPNTEAKDFLQNVKVNLKVFNSLGAKVSSRRPSDYLNRSTSPWTLHRNEDPDRYPSVIWEAQCRHQRCVNAEGKLDHHMNSVLIQQEILVLKREPESCPFTFRVEKMLVGVGCTCVASIVRQAA,"EC50, ap1/nfkb luciferase in nih3t3/kz142.8/hcytor14x1 cells",[11],~0.004 µg/mL
